The experiment has as its target 14R1 revertant mutant E. Briefly: ELISA, epitope mapping. A general note: An ELISA detects its analyte on a solid surface through an enzyme-linked reagent.

B1: monoclonal antibody 61D8 (IgG) (antibody, V domains shown)
VH: CKASGYSFTSYWMHWVKQRPGQGLEWIGMIDPSDSETKLNQQFKDKATLTVDTSSSTAYMQLTSPTSEDSVVYYCARGKMGGRFYFDYLGQGTTLTVSS
VL: ITCKASQDVGTAVVWYQQKPGQSPKLLIYWASTRHTGVPDRFTGSGFGTDFTLTISNVQSEDLADYFCQQFSSYPYTFGGGTKLEIKR
With B1, the fold reduction in 61D8 binding (against 14R1) came to 30 fold.

These data come from patent US20220064233A1.
